Source: patent EP2265632B1, “CD4-RELATED POLYPEPTIDES AND METHODS OF USE” (priority 2008, dated 2009)

Key:
[1] = target: recombinant HIV-1BaL gp120 (HIV-1 BaL); test: ELISA on immobilized gp120BaL in 25 mM DTT
[2] = target: recombinant HIV-1BaL gp120 (HIV-1 BaL); test: ELISA on immobilized gp120BaL in 100 mM β-mercaptoethanol

| Substance | percent of the binding seen under native conditions [1] | percent of the binding seen under native conditions [2] |
| --- | --- | --- |
| MAb 2G12 (antibody) | 50% | 50% |
| MAb IgG1 b12 (antibody) | 50% | 50% |
